Consider one molecule from paper PMC5339894, “G196 epitope tag system: a novel monoclonal antibody, G196, recognizes the small, soluble peptide DLVPR with high affinity” (Scientific Reports, 2017).

Assay [1] relates to Atf1-G196-GFP. The assay can be described thus: Western blot analysis of fission yeast extracts. Format: cell-based. The settings on record: C-terminally 3 × G196-tagged Atf1, mAb G196 1:2000. The text has this:
C-terminal tagging of the atf1 gene (Supplementary Fig. 1) was accomplished using the G196t2 primer. This primer contains a sequence homologous to a portion of the atf1 coding sequence, a sequence for 3 × G196-tag, and a sequence homologous to another primer, com5. In the first PCR step, two sequences flanking the translational stop codon of the atf1 gene were amplified with the primers t1 and G196t2, and with the primers t3 and t4, using the genomic DNA as a template. The GFP-kanMX cassette was also amplified with the primers com5 and com6, using pFA6a-GFP(S65T)-kanMX as a template. The three PCR products were fused together in the second PCR step with the primers t1 and t4 to produce a DNA fragment for homologous recombination.
Cells (1 × 10^8) growing exponentially in YES medium at 30 °C were harvested to obtain whole cell extracts as described elsewhere. Samples were resolved by SDS-PAGE on 7% gels, semi-dry blotted to PVDF membranes, and detected using an ECL detection system (PerkinElmer, Waltham, MA, USA). Mouse mAb G196 (1:2000) and anti-GFP rabbit polyclonal antibody (1:1000) were used as primary antibodies. HRP-conjugated goat anti-mouse antibody (1:5000, Rockland Immunochemicals) and anti-rabbit antibody (1:2000, Jackson ImmunoResearch Laboratories) were used as secondary antibodies.

The test system of assay [2] is FLAG-HA-Emerald GFP tagged with C-terminal G196-tag (FHG-G196). The assay can be described thus: immunoprecipitation (IP) from HeLa cell extracts. The assay is classed as cell-based, human. The source says: Short peptides and paired mAbs specific for the sequences of interest are powerful and irreplaceable tools for scientific research. To ascertain the possible versatility of G196-tag as a versatile fusion tag, we generated several human and yeast expression constructs in which the G196-tag was fused to reporter proteins. First, we expressed FLAG- and HA-tagged Emerald GFP (hereafter abbreviated FHG) as a reporter protein, C-terminally fused with a G196-tag (6P12, SDLVPRGSP) in HeLa cells.
(§1) Figure 5 Application of the G196 epitope tag system for scientific research. (a) Western blot and immunoprecipitation (IP) analysis of FLAG-HA-Emerald GFP (FHG) tagged with C-terminal G196-tag in HeLa cells using mAb G196. HeLa cells were transfected with FHG/pcDNA3 or FHG-G196/pcDNA3. After incubation for two days, the cells were lysed and subjected to Western blotting with anti-FLAG (M2) or G196 mAbs (left panel). These lysates were immunoprecipitated with anti-FLAG (M2) (lanes 7, 8) or G196 (lanes 9, 10) mAbs and subjected to Western blotting with anti-FLAG polyclonal antibody (right panel). (b) Immunofluorescence of GFP- and G196-tagged nuclear protein in HeLa cells using mAb G196. HeLa cells were transfected with FHG-G196-NAC1/pcDNA3. After incubation for two days, the cells were fixed and incubated with mAb G196 and anti-GFP polyclonal Ab, then stained with Alexa-594 anti-mouse and Alexa-488 anti-rabbit secondary antibodies. (c) Western blot and chromatin immunoprecipitation (ChIP) analysis of Atf1-G196-GFP in fission yeast using mAb G196. A DNA fragment containing the transcription factor atf1 gene fused with the G196 epitope-GFP gene was replaced with the genomic atf1 gene. Protein extracts were separated by SDS-PAGE and detected with mAb G196 and anti-GFP polyclonal antibody (left panel). GFP-Iws1 expressing cells were used as a negative control. Asterisk indicates non-specific band also detected using the second Ab alone. Schematic representation of the tdh1 locus (right upper panel). The promoter of the tdh1 gene harbors a CRE consensus site. […]

For assay [3], the system named is FHG-G196-NAC1. The assay can be described thus: immunofluorescence of GFP- and G196-tagged nuclear protein in HeLa cells. Format: cell-based, human. The settings on record: FHG-G196-NAC1, Alexa-594 / Alexa-488 secondary. The protocol: as §1, with “GFP-Iws1 expressing cells were used as a negative control.” left out, “alone.” for “alone. Schematic representation of the tdh1 locus (right upper panel). The promoter of the tdh1 gene harbors a CRE consensus site.”

B1: mAb G196: mouse mAb (IgG1) raised against GST protein bacterially expressed using the pGEX-2T vector (antibody, V domains shown)
VH: QVKLQESGAELVKPGASVKLSCKASGYTFTNYWMHWVKLRPGQGFEWIGEINPSNGGSNYNEKFKRKATLTVDKSSSTAYMQLSSLTSEDSAVFYCSIWDSYFDYWGQGTTLTVSS
VL: NIVMTQSPKSMSMSVGERVTLTCKASENVVTYVSWYQQKPEQSPKLLIYGASNRYTGVPDRFTGSGSATDFTLTISSVQAEDLADYHCGQGYSYPYTFGGGTKLEIK
With B1, in assay [1], the “detection of Atf1 by Western blot” value is “detected the Atf1 protein”. The “immunoprecipitation of reporter lacking G196-tag” value in assay [2] (HeLa cell extracts, FHG (lane 9)) was “did not immunoprecipitate reporter protein lacking the G196-tag”. The “immunoprecipitation of FHG-G196” value in assay [2] (HeLa cell extracts, Western blot with anti-FLAG polyclonal antibody (lane 10)) is reported as “efficiently immunoprecipited reporter protein”. Further, the “immunoprecipitation of FHG-G196 compared with anti-FLAG” value in assay [2] (lane 10 versus lane 8) is on record as “comparable to that of FLAG immunoprecipitates”. Further, in assay [3], the “immunofluorescence detection of nuclear reporter protein NAC1” value is given as “successfully detected the nuclear reporter protein”.
